Test results as given in patent US20210369842A1 (Genmab, published 2021).
Substitutions are numbered along the chain they refer to. In names and notes the source's numbering stands.

Tests used:
Human PD-L1 [1] = molecular target: T1, Human PD-L1 (human, UniProt Q9NZQ7 19-290); test: flow cytometry on PC-3 cells, PE-conjugated goat anti-human IgG F(ab')2 as secondary
T1 construct: Amino acids 1-18 are stated as the predicted signal peptide; also called CD274; B7H1
Protocol: (§1) Cells (3-5×10⁴ cells/well) were incubated in polystyrene 96-well round-bottom plates (Greiner bio-one, cat. no. 650101) with serial dilutions of antibodies (range 0.0001 to 10 μg/mL in 5-fold dilution steps) in 50 μL PBS/0.1% BSA/0.02% azide (FACS buffer) at 4° C. for 30 min. After washing twice in FACS buffer, cells were incubated with secondary antibody at 4° C. for 30 min. As a secondary antibody, R-Phycoerythrin (PE)-conjugated goat-anti-human IgG F(ab′)₂ (Cat. no. 109-116-098, Jackson ImmunoResearch Laboratories, Inc., West Grove, Pa.) diluted 1:500 in 50 μL FACS buffer, was used for all experiments. Next, cells were washed twice in FACS buffer, re-suspended in 20 μL FACS buffer and analyzed on an iQue screener (Intellicyt Corporation, USA). Binding curves were analyzed using non-linear regression (sigmoidal dose-response with variable slope) using GraphPad Prism V75.04 software (GraphPad Software, San Diego, Calif., USA).

Human PD-L1 [2] = molecular target: T1, Human PD-L1; test: flow cytometry on SK-MES-1 cells, PE-conjugated goat anti-human IgG F(ab')2 as secondary
Protocol: as §1

Human PD-L1 [3] = molecular target: T1, Human PD-L1; test: flow cytometry on MDA-MB-231 cells, PE-conjugated goat anti-human IgG F(ab')2 as secondary
Protocol: as §1

Human CD137 = Human CD137 (human, UniProt Q07011 24-255); test: cell-based or functional assay
Human PD-L1 [4] = molecular target: T1, Human PD-L1; test: cell-based or functional assay

T1 sequence (Q9NZQ7 19-290): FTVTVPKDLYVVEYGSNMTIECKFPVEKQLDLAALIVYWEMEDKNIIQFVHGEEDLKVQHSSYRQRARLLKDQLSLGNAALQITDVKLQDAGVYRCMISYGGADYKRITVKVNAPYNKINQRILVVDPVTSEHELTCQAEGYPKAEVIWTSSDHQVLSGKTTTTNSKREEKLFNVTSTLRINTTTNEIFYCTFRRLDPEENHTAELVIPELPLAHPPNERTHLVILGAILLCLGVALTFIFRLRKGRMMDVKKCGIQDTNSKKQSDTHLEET
Chain of Human CD137 (Q07011 24-255): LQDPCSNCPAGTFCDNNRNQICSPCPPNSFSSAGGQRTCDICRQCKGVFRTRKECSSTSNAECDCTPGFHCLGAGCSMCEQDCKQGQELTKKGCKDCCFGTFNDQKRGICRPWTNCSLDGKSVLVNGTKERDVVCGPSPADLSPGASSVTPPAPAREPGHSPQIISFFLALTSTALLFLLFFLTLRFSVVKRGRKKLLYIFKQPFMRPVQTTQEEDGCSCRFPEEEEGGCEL

B1: PD-L1-547-FEAR (antibody, human IgG1, lambda, V domains shown)
VH: EVQLLEPGGGLVQPGGSLRLSCEASGSTFSTYAMSWVRQAPGKGLEWVSGFSGSGGFTFYADSVRGRFTISRDSSKNTLFLQMSSLRAEDTAVYYCAIPARGYNYGSFQHWGQGTLVTVSS
VL: SYVLTQPPSVSVAPGQTARITCGGNNIGSKSVHWYQQKPGQAPVLVVYDDNDRPSGLPERFSGSNSGNTATLTISRVEAGDEADYYCQVWDSSSDHVVFGGGTKLTVLG
notes: Human IgG1 lambda with L234F, L235E, D265A and K409R (FEAR)
- EC50 (read off the curve) (Human PD-L1 [1]): ~0.04 µg/mL
- EC50 (read off the curve) (Human PD-L1 [2]): ~0.1 µg/mL
- EC50 (read off the curve) (Human PD-L1 [3]): ~0.05 µg/mL

B2: b12 (antibody, V domains shown)
VH: QVQLVQSGAEVKKPGASVKVSCQASGYRFSNFVIHWVRQAPGQRFEWMGWINPYNGNKEFSAKFQDRVTFTADTSANTAYMELRSLRSADTAVYYCARVGPYSWDDSPQDNYYMDVWGKGTTVIVSS
VL: EIVLTQSPGTLSLSPGERATFSCRSSHSIRSRRVAWYQHKPGQAPRLVIHGVSNRASGISDRFSGSGSGTDFTLTITRVEPEDFALYYCQVYGASSYTFGQGTKLERK
notes: also called monospecific, bivalent b12 antibody; gp120 specific antibody
- binding result (Human PD-L1 [3]): no binding (tested: 10 µg/mL)

B3: PD-L1-547-FEALxCD137-009-HC7LC2-FEAR (bispecific antibody, human IgG1, kappa, lambda)
heavy 1: EVQLLEPGGGLVQPGGSLRLSCEASGSTFSTYAMSWVRQAPGKGLEWVSGFSGSGGFTFYADSVRGRFTISRDSSKNTLFLQMSSLRAEDTAVYYCAIPARGYNYGSFQHWGQGTLVTVSSASTKGPSVFPLAPSSKSTSGGTAALGCLVKDYFPEPVTVSWNSGALTSGVHTFPAVLQSSGLYSLSSVVTVPSSSLGTQTYICNVNHKPSNTKVDKRVEPKSCDKTHTCPPCPAPEFEGGPSVFLFPPKPKDTLMISRTPEVTCVVVAVSHEDPEVKFNWYVDGVEVHNAKTKPREEQYNSTYRVVSVLTVLHQDWLNGKEYKCKVSNKALPAPIEKTISKAKGQPREPQVYTLPPSREEMTKNQVSLTCLVKGFYPSDIAVEWESNGQPENNYKTTPPVLDSDGSFLLYSKLTVDKSRWQQGNVFSCSVMHEALHNHYTQKSLSLSPGK
light 1: SYVLTQPPSVSVAPGQTARITCGGNNIGSKSVHWYQQKPGQAPVLVVYDDNDRPSGLPERFSGSNSGNTATLTISRVEAGDEADYYCQVWDSSSDHVVFGGGTKLTVLGQPKAAPSVTLFPPSSEELQANKATLVCLISDFYPGAVTVAWKADSSPVKAGVETTTPSKQSNNKYAASSYLSLTPEQWKSHRSYSCQVTHEGSTVEKTVAPTECS
heavy 2: EVQLVESGGGLVQPGRSLRLSCTASGFSLNDYWMSWVRQAPGKGLEWVGYIDVGGSLYYAASVKGRFTISRDDSKSIAYLQMNSLKTEDTAVYYCARGGLTYGFDLWGQGTLVTVSSASTKGPSVFPLAPSSKSTSGGTAALGCLVKDYFPEPVTVSWNSGALTSGVHTFPAVLQSSGLYSLSSVVTVPSSSLGTQTYICNVNHKPSNTKVDKRVEPKSCDKTHTCPPCPAPEFEGGPSVFLFPPKPKDTLMISRTPEVTCVVVAVSHEDPEVKFNWYVDGVEVHNAKTKPREEQYNSTYRVVSVLTVLHQDWLNGKEYKCKVSNKALPAPIEKTISKAKGQPREPQVYTLPPSREEMTKNQVSLTCLVKGFYPSDIAVEWESNGQPENNYKTTPPVLDSDGSFFLYSRLTVDKSRWQQGNVFSCSVMHEALHNHYTQKSLSLSPGK
light 2: DIVMTQSPSSLSASVGDRVTITCQASEDISSYLAWYQQKPGKAPKRLIYGASDLASGVPSRFSASGSGTDYTFTISSLQPEDIATYYCHYYATISGLGVAFGGGTKVEIKRTVAAPSVFIFPPSDEQLKSGTASVVCLLNNFYPREAKVQWKVDNALQSGNSQESVTEQDSKDSTYSLSSTLTLSKADYEKHKVYACEVTHQGLSSPVTKSFNRGEC
- EC50 value, CD8+ T-cell expansion (donor 1, 0.03 µg/ml anti-CD3) (Human CD137): 0.0122 µg/mL
- EC50 value, CD8+ T-cell expansion (donor 2, 0.09 µg/ml anti-CD3) (Human CD137): 0.00689 µg/mL

B4: b12-FEALxPD-L1-547-FEAR (bispecific antibody)
heavy 1: QVQLVQSGAEVKKPGASVKVSCQASGYRFSNFVIHWVRQAPGQRFEWMGWINPYNGNKEFSAKFQDRVTFTADTSANTAYMELRSLRSADTAVYYCARVGPYSWDDSPQDNYYMDVWGKGTTVIVSSASTKGPSVFPLAPSSKSTSGGTAALGCLVKDYFPEPVTVSWNSGALTSGVHTFPAVLQSSGLYSLSSVVTVPSSSLGTQTYICNVNHKPSNTKVDKRVEPKSCDKTHTCPPCPAPEFEGGPSVFLFPPKPKDTLMISRTPEVTCVVVAVSHEDPEVKFNWYVDGVEVHNAKTKPREEQYNSTYRVVSVLTVLHQDWLNGKEYKCKVSNKALPAPIEKTISKAKGQPREPQVYTLPPSREEMTKNQVSLTCLVKGFYPSDIAVEWESNGQPENNYKTTPPVLDSDGSFLLYSKLTVDKSRWQQGNVFSCSVMHEALHNHYTQKSLSLSPGK
light 1: EIVLTQSPGTLSLSPGERATFSCRSSHSIRSRRVAWYQHKPGQAPRLVIHGVSNRASGISDRFSGSGSGTDFTLTITRVEPEDFALYYCQVYGASSYTFGQGTKLERKRTVAAPSVFIFPPSDEQLKSGTASVVCLLNNFYPREAKVQWKVDNALQSGNSQESVTEQDSKDSTYSLSSTLTLSKADYEKHKVYACEVTHQGLSSPVTKSFNRGEC
heavy 2: B3 heavy 1 with L409F, K413R
light 2: B3 light 1
notes: also called monovalent PD-L1 antibody; monovalent PD-L1-control antibody
- EC50 (read off the curve) (Human PD-L1 [1]): ~0.05 µg/mL
- EC50 (read off the curve) (Human PD-L1 [2]): ~0.2 µg/mL
- EC50 (read off the curve) (Human PD-L1 [3]): ~0.06 µg/mL
- EC50 (read off the curve); fold induction in the PD-1/PD-L1 inhibition bioassay, blocked partner human PD-1 (Human PD-L1 [4]): ~0.1 µg/mL
